This note sets out measurements from patent publication US20160362487A1 (Regeneron, published 2016).

Experiment [1] concerns the target T1, cynomolgus monkey IL-33 expressed with a C-terminal hexahistidine tag (cynomolgus monkey).
T1 construct: also called MfIL-33-6His; Mf-IL-33-6His
T1 chain: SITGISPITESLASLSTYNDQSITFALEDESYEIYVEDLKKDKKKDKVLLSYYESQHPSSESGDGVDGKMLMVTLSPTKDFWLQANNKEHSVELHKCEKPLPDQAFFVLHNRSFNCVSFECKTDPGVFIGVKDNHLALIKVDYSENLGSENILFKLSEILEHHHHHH
In words: SPR 25C pH7.4, mAb captured. The procedure, abridged:
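KD and dissociative half-life were calculated from ka and kd, obtained by 1:1 fitting of SPR sensorgrams. The analyte flowed over captured anti-IL-33 antibodies for 4 min, then dissociated 10 min in pH 7.4 ADA buffer with EDTA and Tween-20.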

Experiment [2] deals with T2, human IL-33 (R&D Systems, #3625-IL-010/CF) (human, UniProt O95760 112-270).
T2 construct: Commercial recombinant protein; also called hIL-33; interleukin-33
T2 sequence (looked up): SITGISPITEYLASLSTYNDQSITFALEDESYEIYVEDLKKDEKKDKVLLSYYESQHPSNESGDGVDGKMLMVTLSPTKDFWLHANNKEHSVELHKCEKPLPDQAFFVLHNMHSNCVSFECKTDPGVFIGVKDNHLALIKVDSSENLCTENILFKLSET
In words: SPR 37C, pH6.0 chase, mAb captured. Here is the method:
(§1) Equilibrium dissociation constants (KD values) for IL-33 binding to purified anti-IL-33 monoclonal antibodies were determined using a real-time surface plasmon resonance biosensor using a Biacore 4000 instrument. The Biacore sensor surface was first derivatized by amine coupling with either a polyclonal rabbit anti-mouse antibody (GE, # BR-1008-38) or with a monoclonal mouse anti-human Fc antibody (GE, # BR-1008-39) to capture anti-IL-33 monoclonal antibodies expressed with mouse or with human IgG4 constant regions, respectively. All Biacore binding studies were performed in 0.01M ADA pH 7.4, 0.15M NaCl, 3 mM EDTA, and 0.05% v/v Surfactant Tween-20 (ABS-ET running buffer). […] Association of either hIL-33 or MfIL-33-6His to the captured monoclonal antibody was monitored for 4 minutes and their dissociation in ABS-ET running buffer was monitored for 10 minutes. The effect of reduced pH on the binding of each anti-IL-33 antibody to either hIL-33 or MfIL-33-6His was studied using an in-line pH chase assay format in 0.01M ADA pH 6.0, 0.15M NaCl, 3 mM EDTA, and 0.05% v/v Surfactant Tween-20 (ABS-ET pH6 buffer). To achieve this, association of either hIL-33 or MfIL-33-6His to the captured monoclonal antibody was monitored for 4 minutes in ABS-ET running buffer. Following a 30 second dissociation of either hIL-33 or MfIL-33-6His in ABS-ET running buffer, ABS-ET pH6 buffer was injected for 3 minutes, and the analyte dissociation under the low-pH conditions was measured. All the binding kinetic experiments were performed at both 25° C. and 37° C. Kinetic association (kₐ) and dissociation (kd) constants were determined by fitting the real-time sensorgrams to a 1:1 binding model using Scrubber 2.0c curve fitting software. Binding dissociation equilibrium constants (KD) and dissociative half-lives (t½) were calculated from the kinetic rate constants as: […]

Experiment [3] has as its target T2, human IL-33 (R&D Systems, …). As to the kind of experiment: BLI; hIL-33 pre-mixed with mAb-2 H1M9565N. Here is the method: Binding competition between a panel of different anti-IL-33 monoclonal antibodies was determined using a real time, label-free bio-layer interferometry assay on an Octet® HTX biosensor (ForteBio, A Division of Pall Life Sciences). The experiment was performed at 25° C. using a buffer of 0.01M HEPES pH7.4, 0.15M NaCl, 0.05% v/v Surfactant Tween-20, and 0.1 mg/ml BSA (HBS-ET kinetics buffer) with the plate shaking at a speed of 1000 rpm. To assess whether two antibodies were able to compete with one another for binding to human IL-33, a pre-mix assay format was used where 100 nM of human IL-33 (R&D Systems; #3625-IL-010/CF) was pre-mixed with 500 nM of different anti-IL-33 monoclonal antibodies (subsequently referred to as mAb-2) for at least 2 hours prior to running the binding competition assay. […] Following the capture step, unoccupied anti-mouse Fc polyclonal antibody and anti-human Fc polyclonal antibody on the Octet biosensors were saturated by submerging them for 4 minutes into wells containing 200 μg/mL of a non-specific monoclonal antibody with a mouse Fc or with a human Fc, respectively. Finally, the Octet biosensors were immersed for 4 minutes into wells containing the pre-mixed samples of 100 nM of human IL-33 and 500 nM of mAb-2. At the end of each cycle, the non-covalently captured anti-IL-33 antibodies along with the bound pre-complex of human IL-33 and mAb-2 were removed from the biosensors using three alternate 20 second immersions into 10 mM HCl followed by submerging into HBS-ET kinetics buffer. The biosensors were washed in HBS-ET kinetics buffer in between every step of the experiment. The real-time binding response was monitored during the binding events, and the binding response (in units of nm) at the end of every step was recorded.
Background: BLI is a label-free optical method that tracks binding on a fibre tip over time.

The target in experiment [4] is T1, cynomolgus monkey IL-33 expressed with …. In words: BLI; captured MfIL-33-6His, mAb-1 step with Isotype control. The method, then:
Binding competition between a panel of different anti-IL-33 monoclonal antibodies was determined using a real time, label-free bio-layer interferometry assay on an Octet® HTX biosensor (ForteBio, A Division of Pall Life Sciences). The experiment was performed at 25° C. using a buffer of 0.01M HEPES pH7.4, 0.15M NaCl, 3 mM EDTA, 0.05% v/v Surfactant Tween-20, and 0.1 mg/ml BSA (HBS-ET kinetics buffer) with the plate shaking at a speed of 1000 rpm. […] The antigen-captured biosensors were then saturated with a first anti-IL-33 monoclonal antibody (subsequently referred to as mAb-1) by immersion into wells containing 50 μg/mL solution of mAb-1 for 5 minutes. The biosensors were then dipped into wells containing a 50 μg/mL solution of a second anti-IL-33 monoclonal antibody (subsequently referred to as mAb-2) for 4 minutes. The biosensors were washed in HBS-ET kinetics buffer in between every step of the experiment. The real-time binding response was monitored during the experiment, and the maximum binding response for each binding step was recorded. The response of mAb-2 binding to MfIL-33-6His pre-complexed with mAb-1 was measured, and competitive/non-competitive behavior of different anti-IL-33 monoclonal antibodies with respect to each other was determined.

For experiment [5] the target is unchanged. As to the kind of experiment: SPR 37C, pH6.0 chase, mAb captured. The method, then:
as §1

B1: H4H9676P (antibody, human IgG4, V domains shown)
VH: EVQLVESGGGLVQPGGSLRLSCSASGFTFSSYAMNWVRQAPGKGLEWVTAISGSGGGTYYADSVKGRFTISRDNSKNSLFLQLNSLRAEDTAVYYCAKQTYTSSWYGGFDIWGQGTMVTVSS
VL: DIQMTQSPSSVSASVGDRVTITCRASQGFSSWLAWYQQIPGKAPKLLIYAASRLQSGVPSRFRGSGSGTDFTLTISSLQPEDFATYYCQQANSFPLTFGGGTKVEIK
notes: Human IgG4 Fc (H4H)
One may read the Kd as the constant that tells how readily two partners part at equilibrium. One may read the koff as the first-order rate constant of dissociation. As a reminder, the kon is the rate constant with which the complex forms. What is called t½ is the time needed for the level to fall by half in the phase considered. In experiment [1], B1 returned a Kd of 4.84 nM, a koff of 0.00412 s⁻¹, a kon of 852000 M⁻¹ s⁻¹ and a t½ of 2.8 min. Besides, in experiment [2], the koff is 0.00524 s⁻¹, the t½ is 2 min and the “t½ Ratio (pH 7.4/pH 6.0)” value came out at 4.1. The “mAb-1 Binding to the Pre-complex of mAb-2 & hIL-33” value (shortened to “mAb-1 Binding to the Pre-complex”) in experiment [3] was 0.45 nm. For the same molecule, the “mAb-2 Binding to the Pre-complex of mAb-1 & MfIL-33-6xHis” value (“mAb-2 Binding to the Pre-complex” below) in experiment [4] was determined as 0.25 nm.

B2: H1M9566N (antibody, mouse IgG1, V domains shown)
VH: EVQLLESGGDLVQPGGSLRLSCAASGFTFSSYAMSWVRQAPGKGLEWVSVISGSGSSTDYADSVKGRFTISRDNSRDTLHLQMNSLRAEDTAVYYCAKTFYYFYGLDVWGQGTTVTVSS
VL: DIQMTQSPSSLSASLRDRVTITCRASQGISNYLAWYQQKPGKVPKVLIYAASTLQSGVPSRFSGSGSGTVFTLTISSLQTEDVATYYCQKYSSAPFTFGPGTKVDIK
notes: Human variable domains, mouse IgG1 Fc (H1M)
In experiment [1], B2 had a Kd of 0.333 nM, a koff of 9.75e-05 s⁻¹, an on-rate (kon) of 293000 M⁻¹ s⁻¹ and a t½ of 119 min. In experiment [2], the koff is 0.000967 s⁻¹, the t½ was determined as 12 min and the “t½ Ratio (pH 7.4/pH 6.0)” value was 3.4. Besides, in experiment [5], the koff was 0.00115 s⁻¹, the t½ amounted to 10 min and the “t½ Ratio (pH 7.4/pH 6.0)” value is 2.9. In addition, in experiment [3], the “mAb-1 Binding to the Pre-complex” value came out at 0.17 nm. For the same molecule, the “mAb-2 Binding to the Pre-complex” value in experiment [4] is 0.38 nm.

B3: H1M9568N (antibody, mouse IgG1, V domains shown)
VH: QVLLVQSGAEVKKPGATVKVSCKASGSTFTGYYMHWVRQAPGQGLEWMGWINPNNGGTNYAQKFQGRVTMTRDTSISTAYMELSRLRSDDTAVYYCARELRYNWKSWGQGTLVTVSS
VL: EIVLTQSPGTLSLSPGERVTLSCRASQSVGRPYLAWYQQIPGQAPRLLIYGASSRATDIPDRFSGNGSGTDFTLTISRLEPEDFAVYYCQQYDNSPYTFGQGTRLEIK
notes: as for B2
In experiment [1], B3 came in with a Kd of 1.07 nM, a koff of 0.000261 s⁻¹, a kon of 244000 M⁻¹ s⁻¹ and a t½ of 44 min. Besides, in experiment [2], the koff amounted to 0.0011 s⁻¹, the t½ worked out at 10 min and the “t½ Ratio (pH 7.4/pH 6.0)” value amounted to 1.1. For the same molecule, in experiment [5], the koff is 0.00224 s⁻¹, the t½ was found to be 5 min and the “t½ Ratio (pH 7.4/pH 6.0)” value was 1.3. Further, in experiment [3], the “mAb-1 Binding to the Pre-complex” value was determined as 0.08 nm. The “mAb-2 Binding to the Pre-complex” value in experiment [4] is 0.34 nm.

B4: H4H9640P (antibody, human IgG4, V domains shown)
VH: QVQLQESGPGLVKPSETLSLTCTVSGGSISSYYWSWIRQPPGKGLELIGYIYYSGSTNYNPSLKSRVTISVDTSKNHFSLKLSSVTAADTAVYYCARSQYTSSWYGSFDIWGQGTMVTVSS
VL: DIQMTQSPSSVSASVGDRVTITCRASQGISTWLAWFQQKPGKAPKLLIYAASTLQGGVPSRFSGSGSGPEFTLTISSLQPEDFATYYCQQANSFPWTFGQGTKVEIK
notes: Human IgG4 Fc (H4H)
In the case of B4, in experiment [1], the affinity, expressed as Kd, was 3.06 nM; the koff turned out to be 0.00137 s⁻¹; the kon came to 450000 M⁻¹ s⁻¹; the t½ turned out to be 8 min. Moreover, in experiment [2], the koff is 0.00265 s⁻¹, the t½ amounted to 4 min and the “t½ Ratio (pH 7.4/pH 6.0)” value came out at 4.6. Besides, in experiment [5], the koff was 0.00226 s⁻¹, the t½ amounted to 5 min and the “t½ Ratio (pH 7.4/pH 6.0)” value was 0.5. Also, in experiment [3], the “mAb-1 Binding to the Pre-complex” value worked out at 0.57 nm. Further, in experiment [4], the “mAb-2 Binding to the Pre-complex” value came out at 0.28 nm.

B5: H4H9659P (antibody, human IgG4, V domains shown)
VH: QVQLVQSGAEVKKPGASVKVSCKASGYTFNSYGISWVRQAPGQGLEWMGWISSHNGNSHYVQKFQGRVSMTTDTSTSTAYMELRSLRSDDTAVYYCARHSYTTSWYGGFDYWGQGTLVTVSS
VL: DIQMTQSPSSVSASVGDRVTITCRASQGFSSWLAWYQQKPGKAPQLLIYAASSLQSGVPSRFSGSGSGSDFTLTISSLQPEDFATYYCQQANSFPLTFGGGTKVEIK
notes: Human IgG4 Fc (H4H)
In experiment [1], B5 displayed a Kd of 1.5 nM, a koff of 0.000486 s⁻¹, a kon of 325000 M⁻¹ s⁻¹ and a t½ of 24 min. In experiment [2], the koff amounted to 0.00299 s⁻¹, the t½ turned out to be 4 min and the “t½ Ratio (pH 7.4/pH 6.0)” value was 7.4. In experiment [5], the koff is 0.00102 s⁻¹, the t½ turned out to be 11 min and the “t½ Ratio (pH 7.4/pH 6.0)” value stood at 0.5. Also, the “mAb-1 Binding to the Pre-complex” value in experiment [3] stood at 0.52 nm. In addition, in experiment [4], the “mAb-2 Binding to the Pre-complex” value was 0.25 nm.
